Results reported in the supplement of paper PMC9112550, “Optimization of the antimicrobial peptide Bac7 by deep mutational scanning” (BMC Biology, 2022).

The sequences below were run on Escherichia coli TOP10 (assay: shrunken log2 fold change of peptide-encoding DNA abundance (4.5 h post-induction vs induction); higher = less antimicrobial activity (less host growth inhibition)). Details: time post-induction: 4.5 h; library: site-saturation at positions 5, 18, 19, 20.
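Also: peptides expressed intracellularly from a pBAD plasmid library in pooled LB shake-flask culture, induced with 0.3% L-arabinose, DNA abundance read by NGS, three biological replicates, DESeq2 with apeglm shrinkage.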

| Sequence | shrunken log2 fold change |
| --- | --- |
| RRIRHRPPRLPRPRPRPWHDPRP | -0.00088 |
| RRIRVRPPRLPRPRPRPVYVPRP | -0.0177 |
| RRIRIRPPRLPRPRPRPPSKPRP | 0.147 |
| RRIRDRPPRLPRPRPRPRKDPRP | -0.108 |
| RRIRYRPPRLPRPRPRPKRNPRP | -0.374 |
| RRIRCRPPRLPRPRPRPTRRPRP | 0.391 |
| RRIRQRPPRLPRPRPRPYMPPRP | -0.0463 |
| RRIRNRPPRLPRPRPRPTPTPRP | 0.674 |
| RRIRQRPPRLPRPRPRPRKMPRP | -0.0294 |
| RRIRIRPPRLPRPRPRPTAEPRP | -0.0333 |
| RRIRVRPPRLPRPRPRPLADPRP | 0.279 |
| RRIRTRPPRLPRPRPRPEMAPRP | 0.484 |
| RRIRPRPPRLPRPRPRPEFYPRP | -0.173 |
| RRIRYRPPRLPRPRPRPFNEPRP | -1.01 |
| RRIRLRPPRLPRPRPRPKVGPRP | 0.109 |
| RRIRKRPPRLPRPRPRPRALPRP | 0.396 |
| RRIRQRPPRLPRPRPRPQMIPRP | -0.0977 |
| RRIRERPPRLPRPRPRPLVEPRP | -0.229 |
| RRIRTRPPRLPRPRPRPPYHPRP | -0.541 |
| RRIRLRPPRLPRPRPRPLTGPRP | -0.0782 |
| RRIRCRPPRLPRPRPRPFTCPRP | -0.223 |
| RRIRNRPPRLPRPRPRPMEVPRP | -0.052 |
| RRIRGRPPRLPRPRPRPKLWPRP | 0.896 |
| RRIRERPPRLPRPRPRPTWMPRP | 0.0534 |
| RRIRYRPPRLPRPRPRPRRKPRP | 0.0824 |

| Sequence | shrunken log2 fold change |
| --- | --- |
| RRIRYRPPRLPRPRPRPYYGPRP | -0.0846 |
| RRIRGRPPRLPRPRPRPQTFPRP | 0.762 |
| RRIRGRPPRLPRPRPRPPQHPRP | 0.789 |
| RRIRRRPPRLPRPRPRPHQCPRP | -0.0941 |
| RRIRQRPPRLPRPRPRPYDAPRP | 0.0382 |
| RRIRMRPPRLPRPRPRPNMSPRP | 0.0106 |
| RRIRRRPPRLPRPRPRPDAWPRP | 0.325 |
| RRIRVRPPRLPRPRPRPDLLPRP | -0.224 |
| RRIRQRPPRLPRPRPRPTPFPRP | 0.296 |
| RRIRCRPPRLPRPRPRPGLHPRP | -0.131 |
| RRIRIRPPRLPRPRPRPSCRPRP | -0.644 |
| RRIRLRPPRLPRPRPRPMPVPRP | 0.132 |
| RRIRLRPPRLPRPRPRPCGAPRP | 0.356 |
| RRIRWRPPRLPRPRPRPQGDPRP | -0.0316 |
| RRIRQRPPRLPRPRPRPVNMPRP | 0.0206 |
| RRIRVRPPRLPRPRPRPPCYPRP | -0.356 |
| RRIRPRPPRLPRPRPRPSALPRP | -0.00612 |
| RRIRMRPPRLPRPRPRPYWWPRP | 0.0238 |
| RRIRNRPPRLPRPRPRPAFRPRP | 0.0513 |
| RRIRYRPPRLPRPRPRPCLFPRP | -0.931 |
| RRIRWRPPRLPRPRPRPWCGPRP | 0.273 |
| RRIRVRPPRLPRPRPRPCTAPRP | 0.172 |
| RRIRHRPPRLPRPRPRPNTVPRP | 0.0932 |
| RRIRPRPPRLPRPRPRPMCQPRP | 0.27 |
| RRIRIRPPRLPRPRPRPTCSPRP | -0.371 |

| Sequence | shrunken log2 fold change |
| --- | --- |
| RRIRLRPPRLPRPRPRPSSRPRP | -0.425 |
| RRIRKRPPRLPRPRPRPWDVPRP | 0.0155 |
| RRIRDRPPRLPRPRPRPMHFPRP | -0.142 |
| RRIRQRPPRLPRPRPRPMNDPRP | -0.227 |
| RRIRERPPRLPRPRPRPTASPRP | -0.15 |
| RRIRFRPPRLPRPRPRPPGNPRP | 0.0667 |
| RRIRERPPRLPRPRPRPVEHPRP | -0.0102 |
| RRIRFRPPRLPRPRPRPVDDPRP | -0.601 |
| RRIRCRPPRLPRPRPRPYMTPRP | -1.06 |
| RRIRHRPPRLPRPRPRPPERPRP | 0.511 |
| RRIRARPPRLPRPRPRPNCKPRP | -0.0213 |
| RRIRHRPPRLPRPRPRPWNYPRP | -0.617 |
| RRIRERPPRLPRPRPRPKWKPRP | -0.0193 |
| RRIRCRPPRLPRPRPRPCKNPRP | -0.194 |
| RRIRKRPPRLPRPRPRPFRRPRP | 0.0327 |
| RRIRSRPPRLPRPRPRPLWMPRP | -0.0686 |
| RRIRFRPPRLPRPRPRPTCIPRP | -0.13 |
| RRIRGRPPRLPRPRPRPPHEPRP | 0.773 |
| RRIRPRPPRLPRPRPRPLQVPRP | 0.013 |
| RRIRVRPPRLPRPRPRPYMSPRP | -0.583 |
| RRIRVRPPRLPRPRPRPTCKPRP | -0.0395 |
| RRIRYRPPRLPRPRPRPFQGPRP | 0.0712 |
| RRIRPRPPRLPRPRPRPICNPRP | -0.367 |
| RRIRCRPPRLPRPRPRPQHNPRP | -0.771 |
| RRIRRRPPRLPRPRPRPIVAPRP | 0.174 |

| Sequence | shrunken log2 fold change |
| --- | --- |
| RRIRTRPPRLPRPRPRPMCLPRP | 0.0631 |
| RRIRTRPPRLPRPRPRPVCLPRP | -0.398 |
| RRIRERPPRLPRPRPRPEYVPRP | -0.0151 |
| RRIRMRPPRLPRPRPRPRGGPRP | 1.26 |
| RRIRSRPPRLPRPRPRPKCIPRP | -0.256 |
| RRIRARPPRLPRPRPRPNKNPRP | 0.0222 |
| RRIRMRPPRLPRPRPRPLDPPRP | 0.146 |
| RRIRYRPPRLPRPRPRPDDLPRP | -0.0432 |
| RRIRIRPPRLPRPRPRPPANPRP | -0.0976 |
| RRIRRRPPRLPRPRPRPLGYPRP | 0.26 |
| RRIRERPPRLPRPRPRPNEHPRP | -0.445 |
| RRIRLRPPRLPRPRPRPLYDPRP | -0.924 |
| RRIRWRPPRLPRPRPRPWRDPRP | 0.433 |
| RRIRPRPPRLPRPRPRPCCCPRP | 0.368 |
| RRIRDRPPRLPRPRPRPMVEPRP | 0.465 |
| RRIRFRPPRLPRPRPRPQMFPRP | -0.103 |
| RRIRHRPPRLPRPRPRPFPMPRP | -0.651 |
| RRIRTRPPRLPRPRPRPENGPRP | 0.0885 |
| RRIRKRPPRLPRPRPRPPHHPRP | 0.322 |
| RRIRFRPPRLPRPRPRPTDWPRP | 0.335 |
| RRIRHRPPRLPRPRPRPSMPPRP | -0.0929 |
| RRIRRRPPRLPRPRPRPHNCPRP | 0.163 |
| RRIRCRPPRLPRPRPRPCTLPRP | -0.107 |
| RRIRMRPPRLPRPRPRPSCLPRP | -0.0926 |
| RRIRFRPPRLPRPRPRPEVHPRP | -0.309 |

| Sequence | shrunken log2 fold change |
| --- | --- |
| RRIRVRPPRLPRPRPRPFLTPRP | -0.0925 |
| RRIRFRPPRLPRPRPRPRAMPRP | 0.241 |
| RRIRTRPPRLPRPRPRPMVEPRP | 0.0887 |
| RRIRIRPPRLPRPRPRPPNNPRP | -0.637 |
| RRIRMRPPRLPRPRPRPLCRPRP | 0.359 |
| RRIRPRPPRLPRPRPRPGYGPRP | 0.0799 |
| RRIRCRPPRLPRPRPRPCFAPRP | -0.162 |
| RRIRRRPPRLPRPRPRPPIVPRP | -0.00408 |
| RRIRERPPRLPRPRPRPGNTPRP | -0.089 |
| RRIRRRPPRLPRPRPRPEIVPRP | 0.246 |
| RRIRYRPPRLPRPRPRPRENPRP | 0.0246 |
| RRIRVRPPRLPRPRPRPAYQPRP | -0.264 |
| RRIRTRPPRLPRPRPRPTTEPRP | -0.16 |
| RRIRARPPRLPRPRPRPMYEPRP | -0.0125 |
| RRIRIRPPRLPRPRPRPGHWPRP | 0.0615 |
| RRIRNRPPRLPRPRPRPNVQPRP | -0.128 |
| RRIRLRPPRLPRPRPRPRFCPRP | -0.0895 |
| RRIRIRPPRLPRPRPRPDDHPRP | 0.07 |
| RRIRMRPPRLPRPRPRPHRFPRP | -0.0727 |
| RRIRWRPPRLPRPRPRPLNRPRP | -0.274 |
| RRIRMRPPRLPRPRPRPNGCPRP | 0.254 |
| RRIRWRPPRLPRPRPRPRQHPRP | 0.251 |
| RRIRQRPPRLPRPRPRPAQAPRP | 0.0255 |
| RRIRKRPPRLPRPRPRPMCSPRP | -0.0421 |
| RRIRPRPPRLPRPRPRPIMAPRP | -0.0956 |

| Sequence | shrunken log2 fold change |
| --- | --- |
| RRIRSRPPRLPRPRPRPLFQPRP | -0.126 |
| RRIRARPPRLPRPRPRPFKGPRP | -0.104 |
| RRIRLRPPRLPRPRPRPWMMPRP | 0.00744 |
| RRIRKRPPRLPRPRPRPDNVPRP | -0.0064 |
| RRIRTRPPRLPRPRPRPEAWPRP | 0.178 |
| RRIRARPPRLPRPRPRPWVHPRP | -0.162 |
| RRIRGRPPRLPRPRPRPMPVPRP | 0.447 |
| RRIRGRPPRLPRPRPRPTWRPRP | 0.673 |
| RRIRTRPPRLPRPRPRPWINPRP | 0.0189 |
| RRIRCRPPRLPRPRPRPTSFPRP | -0.306 |
| RRIRMRPPRLPRPRPRPHNLPRP | -0.0351 |
| RRIRVRPPRLPRPRPRPFMCPRP | -0.325 |
| RRIRERPPRLPRPRPRPYKIPRP | -0.266 |
| RRIRIRPPRLPRPRPRPAEVPRP | -0.041 |
| RRIRLRPPRLPRPRPRPYKSPRP | 0.0344 |
| RRIRERPPRLPRPRPRPWMSPRP | -0.0212 |
| RRIRNRPPRLPRPRPRPYSVPRP | -0.0155 |
| RRIRYRPPRLPRPRPRPHDQPRP | -0.188 |
| RRIRPRPPRLPRPRPRPESGPRP | 0.415 |
| RRIRERPPRLPRPRPRPQDCPRP | 0.015 |
| RRIRHRPPRLPRPRPRPSPVPRP | -0.0462 |
| RRIRARPPRLPRPRPRPTQQPRP | -0.0711 |
| RRIRGRPPRLPRPRPRPVWSPRP | 0.179 |
| RRIRLRPPRLPRPRPRPRSVPRP | -0.0722 |
| RRIRWRPPRLPRPRPRPLDKPRP | 0.352 |
